Here are results for 94 variants from the supplement of paper PMC10567573.

Sequences and labels used below:
B1: TRAF3IP2 (parent)
chain: PRPPSNPPARGTLKTSNLPEELRK
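Further: lentivirally expressed fusions sorted by FACS into six bins by GFP to DsRed ratio, PSI derived from sequencing read proportions per bin multiplied by bin number.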

Variants of B1 are the subject of the data set. The data set can be described thus: protein stability index of a GFP-peptide fusion (GPS, HEK-293T) (PSI 1-6); higher = more stable. The following applies: c terminus: a fixed tail appended.
As for PRPPSNPPARGTLKTHNLPEELRK [S16H], the protein stability index is 4.33.

For PRPPSNPPARGTLKTANLPEELRK [S16A], the protein stability index is 4.41.

Regarding PRPPSNPPARGTLKTNNLPEELRK [S16N], the protein stability index was 4.37.

As to PRPPSNPPARGTLKTCNLPEELRK [S16C], the protein stability index is 4.19.

On to PRPPSNPPARGTLKTVNLPEELRK [S16V], for which the protein stability index is 4.17.

In the case of PRPPSNPPARGTLKTRNLPEELRK [S16R], the protein stability index came to 4.79.

Take PRPPSNPPARGTLKTINLPEELRK [S16I]: the protein stability index was determined as 4.49.

As for PRPPSNPPIRGTLKTSNLPEELRK [A9I], the protein stability index stood at 4.65.

For the variant PRPPSNPPMRGTLKTSNLPEELRK [A9M], the protein stability index amounted to 4.68.

As to PRPPSNPPHRGTLKTSNLPEELRK [A9H], the protein stability index came to 4.63.

PRPPSNPPWRGTLKTSNLPEELRK [A9W]: the protein stability index came out at 4.47.

In the case of PRPPSNPPYRGTLKTSNLPEELRK [A9Y], the protein stability index worked out at 4.5.

Regarding PRPPSNPPVRGTLKTSNLPEELRK [A9V], the protein stability index came out at 4.31.

As for PRPPSNPPNRGTLKTSNLPEELRK [A9N], the protein stability index came to 4.95.

For the variant PRPPSNPPQRGTLKTSNLPEELRK [A9Q], the protein stability index worked out at 4.7.

With PRPPSNPPLRGTLKTSNLPEELRK [A9L], the protein stability index was found to be 4.85.

Consider PRPPSNPPRRGTLKTSNLPEELRK [A9R], for which the protein stability index was 4.6.

PRPPSNPPKRGTLKTSNLPEELRK [A9K]: the protein stability index was 4.44.

For the variant PRPPSNPPCRGTLKTSNLPEELRK [A9C], the protein stability index turned out to be 4.31.

PRPPSNPPSRGTLKTSNLPEELRK [A9S]: the protein stability index came to 4.62.

For PRPPSNPPDRGTLKTSNLPEELRK [A9D], the protein stability index was 5.

Regarding PRPPSNPPFRGTLKTSNLPEELRK [A9F], the protein stability index stood at 4.37.

For the variant PRPPSNPPGRGTLKTSNLPEELRK [A9G], the protein stability index is 4.84.

Turning to PRPPSNPPERGTLKTSNLPEELRK [A9E], the protein stability index was found to be 5.06.

Turning to PRPPSNPPTRGTLKTSNLPEELRK [A9T], the protein stability index came to 5.3.

As for PRPPSNPPARGTLKTSNLVEELRK [P19V], the protein stability index is 4.09.

For the variant PRPPSNPPARGTLKTSNLTEELRK [P19T], the protein stability index came to 4.14.

Regarding PRPPSNPPARGTLKTSNLGEELRK [P19G], the protein stability index was determined as 4.36.

On to PRPPSNPPARGTLKTSNLFEELRK [P19F], for which the protein stability index is 4.28.

Regarding PRPPSNPPARGTLKTSNLCEELRK [P19C], the protein stability index was 4.7.

As for PRPPSNPPARGTLKTSNLQEELRK [P19Q], the protein stability index amounted to 4.75.

Consider PRPPSNPPARGTLKTSNLEEELRK [P19E], for which the protein stability index worked out at 5.1.

Consider PRPPSNPPARGTLKTSNLMEELRK [P19M], for which the protein stability index turned out to be 4.47.

As to PRPPSNPPARGTLKTSNLKEELRK [P19K], the protein stability index was 4.59.

As for PRPPSNPPARGTLKTSNLLEELRK [P19L], the protein stability index was 4.43.

Consider PRPPSNPPARGTLKTSNLNEELRK [P19N], for which the protein stability index was 4.83.

As for PRPPSNPPARGTLKTSNLSEELRK [P19S], the protein stability index amounted to 4.75.

On to PRPPSNPPARGTLKTSNLDEELRK [P19D], for which the protein stability index was determined as 4.89.

With PRPPSNPPARGTLKTSNLREELRK [P19R], the protein stability index was 4.14.

As to PRPPSNPPARGTLKTSNLIEELRK [P19I], the protein stability index was 4.

With PRPPSNPPARGTLKTSNLAEELRK [P19A], the protein stability index is 4.48.

Take PRPPSNPPARGTLKTSNLHEELRK [P19H]: the protein stability index worked out at 3.36.

On to PRPPSNPPARGTLKTSDLPEELRK [N17D], for which the protein stability index is 5.09.

PRPPSNPPARGTLKTSMLPEELRK [N17M]: the protein stability index was found to be 4.8.

As for PRPPSNPPARGTLKTSELPEELRK [N17E], the protein stability index came out at 5.13.

Take PRPPSNPPARGTLKTSYLPEELRK [N17Y]: the protein stability index was 4.77.

For PRPPSNPPARGTLKTSVLPEELRK [N17V], the protein stability index was found to be 3.94.

PRPPSNPPARGTLKTSHLPEELRK [N17H]: the protein stability index was 4.58.

Regarding PRPPSNPPARGTLKTSGLPEELRK [N17G], the protein stability index amounted to 4.82.

As to PRPPSNPPARGTLKTSTLPEELRK [N17T], the protein stability index is 4.21.

On to PRPPSNPPARGTLKTSCLPEELRK [N17C], for which the protein stability index turned out to be 4.29.

In the case of PRPPSNPPARGTLKTSWLPEELRK [N17W], the protein stability index was 3.51.

As for PRPPSNPPARGTLKTSPLPEELRK [N17P], the protein stability index is 5.08.

PRPPSNPPARGTLKTSSLPEELRK [N17S]: the protein stability index turned out to be 4.91.

Consider PRPPSNPPARGTLKTSALPEELRK [N17A], for which the protein stability index amounted to 5.05.

For PRPPSNPPARGTLKTSLLPEELRK [N17L], the protein stability index is 4.49.

In the case of PRPPSNPPARGTLKTSFLPEELRK [N17F], the protein stability index stood at 4.42.

Turning to PRPPSNPPARGTLKTSKLPEELRK [N17K], the protein stability index was 4.07.

Regarding PRPPSNPPARGTLKTSILPEELRK [N17I], the protein stability index was determined as 4.55.

For PRPPSNPRARGTLKTSNLPEELRK [P8R], the protein stability index is 4.43.

Regarding PRPPSNPWARGTLKTSNLPEELRK [P8W], the protein stability index stood at 4.22.

On to PRPPSNPTARGTLKTSNLPEELRK [P8T], for which the protein stability index was 5.02.

Consider PRPPSNPSARGTLKTSNLPEELRK [P8S], for which the protein stability index is 4.8.

As for PRPPSNPVARGTLKTSNLPEELRK [P8V], the protein stability index was 5.04.

On to PRPPSNPYARGTLKTSNLPEELRK [P8Y], for which the protein stability index came to 4.69.

Regarding PRPPSNPQARGTLKTSNLPEELRK [P8Q], the protein stability index was found to be 5.09.

As to PRPPSNPPARGTLKLSNLPEELRK [T15L], the protein stability index amounted to 4.29.

Consider PRPPSNPPARGTLKMSNLPEELRK [T15M], for which the protein stability index was found to be 4.43.

Consider PRPPSNPPARGTLKCSNLPEELRK [T15C], for which the protein stability index amounted to 4.72.

In the case of PRPPSNPPARGTLKYSNLPEELRK [T15Y], the protein stability index was 4.64.

As for PRPPSNPPARGTLKHSNLPEELRK [T15H], the protein stability index amounted to 4.99.

PRPPSNPPARGTLKKSNLPEELRK [T15K]: the protein stability index worked out at 4.82.

Take PRPPSNPPARGTLKSSNLPEELRK [T15S]: the protein stability index is 4.79.

As for PRPPSNPPARGTLKGSNLPEELRK [T15G], the protein stability index amounted to 4.95.

In the case of PRPPSNPPARGTLKESNLPEELRK [T15E], the protein stability index was 4.94.

With PRPPSNPPARGTLKVSNLPEELRK [T15V], the protein stability index was determined as 4.48.

On to PRPPSNPPARGTLKFSNLPEELRK [T15F], for which the protein stability index came out at 4.29.

For the variant PRPPSNPPARGTLKDSNLPEELRK [T15D], the protein stability index was 5.13.

Turning to PRPPSNPPARGTLKASNLPEELRK [T15A], the protein stability index is 4.22.

Consider PRPPSNPPARGTLKWSNLPEELRK [T15W], for which the protein stability index was found to be 3.67.

Regarding PRPPSNPPARGTLKRSNLPEELRK [T15R], the protein stability index is 4.52.

As for PRPPSNPPARGTLKNSNLPEELRK [T15N], the protein stability index is 4.53.

Regarding PRPPSNPPARGTLKISNLPEELRK [T15I], the protein stability index was 4.14.

Take PRPPSNPPARGTLKQSNLPEELRK [T15Q]: the protein stability index was determined as 4.48.

Turning to PRPPSNPPARGTLKPSNLPEELRK [T15P], the protein stability index came to 4.64.

Consider PRPPSNPPAWGTLKTSNLPEELRK [R10W], for which the protein stability index stood at 4.76.

As to PRPPSNPPAEGTLKTSNLPEELRK [R10E], the protein stability index came out at 4.47.

In the case of PRPPSNPPAMGTLKTSNLPEELRK [R10M], the protein stability index stood at 4.64.

On to PRPPSNPPACGTLKTSNLPEELRK [R10C], for which the protein stability index came to 4.58.

For the variant PRPPSNPPALGTLKTSNLPEELRK [R10L], the protein stability index came to 4.96.

As to PRPPSNPPAVGTLKTSNLPEELRK [R10V], the protein stability index is 5.64.

For PRPPSNPPAYGTLKTSNLPEELRK [R10Y], the protein stability index is 4.89.

PRPPSNPPAFGTLKTSNLPEELRK [R10F]: the protein stability index came to 4.49.

With PRPPSNPPAGGTLKTSNLPEELRK [R10G], the protein stability index was found to be 4.27.
